Values belong to the binder of their own block, whether it stands above or below them. Where no end group is shown, it is not given here.
Experiments:
[1] = target: T1, PKC-ε (endogenous, IMR-32 lysate) (human, UniProt Q02156 1-737); assay: WB competition Protocol B, IMR-32 extract, vs anti-PKC-ε Ab; PKC-ε Band 2; 100 µg peptide
T1 construct: Band 1 and Band 2 (alternate splicing variants, not identified further) are kept under one molecule; the band is named in the assay field of each row; also called PKC-epsilon; PKC-ε Band 1
T1 sequence (looked up): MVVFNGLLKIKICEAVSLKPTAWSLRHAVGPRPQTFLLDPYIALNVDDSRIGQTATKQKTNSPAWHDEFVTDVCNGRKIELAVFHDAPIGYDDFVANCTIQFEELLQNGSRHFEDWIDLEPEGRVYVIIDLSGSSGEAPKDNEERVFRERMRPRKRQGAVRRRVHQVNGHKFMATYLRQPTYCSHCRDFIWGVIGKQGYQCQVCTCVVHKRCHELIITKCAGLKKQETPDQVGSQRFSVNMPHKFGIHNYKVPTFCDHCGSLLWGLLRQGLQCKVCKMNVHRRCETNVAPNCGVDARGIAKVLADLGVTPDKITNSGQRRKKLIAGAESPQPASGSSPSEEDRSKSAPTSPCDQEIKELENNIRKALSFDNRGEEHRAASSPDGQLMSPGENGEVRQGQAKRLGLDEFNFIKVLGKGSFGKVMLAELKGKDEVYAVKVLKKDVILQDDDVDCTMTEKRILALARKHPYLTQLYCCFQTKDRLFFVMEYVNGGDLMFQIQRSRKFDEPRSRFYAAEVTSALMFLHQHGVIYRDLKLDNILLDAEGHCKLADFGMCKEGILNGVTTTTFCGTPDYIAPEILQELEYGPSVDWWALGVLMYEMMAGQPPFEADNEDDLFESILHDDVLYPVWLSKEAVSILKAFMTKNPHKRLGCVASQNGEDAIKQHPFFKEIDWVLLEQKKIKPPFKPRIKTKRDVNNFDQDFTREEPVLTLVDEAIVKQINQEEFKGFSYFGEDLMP
Procedure: (§1) The ability of the peptides PRE 2 and PRE 3 (see Table 4) to interfere with the binding of a PKC-α-specific polyclonal antibody (Santa Cruz Biotechnology, Inc.) to PKC-α was determined using a modified version of the protocol outlined above in which the test peptide was added directly to the cell extract prior to electrophoresis at a concentration of either 5× or 15× the concentration of the protein applied to each well of the gel for the Western blots (20 μg).
(§2) Peptides PRE 2, PRE 3 and PRE 4 (see Table 4) were tested for their ability to interfere with the binding of isoform-specific polyclonal antibodies (Santa Cruz Biotechnology, Inc.) to […] using the general protocol described in Example 3. Two bands, representing alternate splicing variants of PKC-ε, were identified on the Western blot using this anti-PKC-ε antibody.

[2] = target: T1, PKC-ε (endogenous, IMR-32 lysate); assay: WB competition Protocol B, IMR-32 extract, vs anti-PKC-ε Ab; PKC-ε Band 1; 100 µg peptide
Procedure: as §1, §2

[3] = target: T1, PKC-ε (endogenous, IMR-32 lysate); assay: WB competition Protocol B, IMR-32 extract, vs anti-PKC-ε Ab; PKC-ε Band 1; 50 µg peptide
Procedure: as §1, §2

[4] = target: T1, PKC-ε (endogenous, IMR-32 lysate); assay: WB competition Protocol B, IMR-32 extract, vs anti-PKC-ε Ab; PKC-ε Band 2; 20 µg peptide
Procedure: as §1, §2

[5] = target: T1, PKC-ε (endogenous, IMR-32 lysate); assay: WB competition Protocol B, IMR-32 extract, vs anti-PKC-ε Ab; PKC-ε Band 1; 20 µg peptide
Procedure: as §1, §2

[6] = target: T1, PKC-ε (endogenous, IMR-32 lysate); assay: WB competition Protocol B, IMR-32 extract, vs anti-PKC-ε Ab; PKC-ε Band 2; 50 µg peptide
Procedure: as §1, §2

[7] = target: T2, PKC-βII (purified isoform) (Homo sapiens (Human), UniProt P05771 2-621); assay: competitive ELISA, coated purified PKC-βII, vs anti-PKC βII (SC-210); PRE 100 µM
T2 construct: also called PKC-beta II; PKC beta 2
Procedure: (§3) Greiner 96 well ELISA plates were coated with the appropriate PKC isoform diluted in PBSN (PBS with Calcium/Magnesium+0.05% Sodium azide w/w). 50 μL/well at 250 ng/mL was used. Control wells contained PBSN only. Plates were incubated overnight at 4° C.
(§4) The plates were washed 3 times with 200 μL of dH₂O per well, then 100 μL of blocking solution was added per well and the plate incubated for 1 h at 37° C. The washing steps with dH₂O were repeated and 50 μL of the appropriate PRE solution (PRE stock solution [20 mM in DMSO] diluted in PBSN) was added and the plate incubated for 1 h at room temperature.
(§5) 50 μL of 1:1000 dilution of Alkaline Phosphatase (AP) conjugated antibody (anti-rabbit for all except zeta, which was anti-goat) was then added and the plate incubated for 1 h at room temperature. Washing with dH₂O was then repeated. Finally, 100 μL of pNPP solution in pNPP buffer (2 mM MgCl₂, 100 mM Sodium bicarbonate in water, pH 9.8) was added to all wells and incubated for 8 minutes for α, βI, βII ε, and ζ, or for 15-20 mins for δ (until sufficient coloration is observed). The reaction was stopped by addition of Stop solution (2N NaOH) and the absorbance at 405 nm was read on a Galaxy Plate reader.

[8] = target: T2, PKC-βII (purified isoform); assay: competitive ELISA, coated purified PKC-βII, vs anti-PKC βII (SC-210); PRE 50 µM
Procedure: as §3, §4, §5

[9] = target: T3, PKC-βI (purified isoform) (Homo sapiens (Human), UniProt P05771 2-671); assay: competitive ELISA, coated purified PKC-βI, vs anti-PKC βI (SC-209); PRE 100 µM
T3 construct: also called PKC-beta I; PKC beta 1
Procedure: as §3, §4, §5

[10] = target: T4, PKC-α (purified isoform) (Homo sapiens (Human), UniProt P17252 2-672); assay: competitive ELISA, coated purified PKC-α, vs anti-PKC α (SC-208); PRE 200 µM
T4 construct: also called purified PKC-alpha; commercially purified PKC-alpha
Procedure: as §3, §4, §5

[11] = target: T3, PKC-βI (purified isoform); assay: competitive ELISA, coated purified PKC-βI, vs anti-PKC βI (SC-209); PRE 50 µM
Procedure: as §3, §4, §5

[12] = target: T5, PKC-δ (purified isoform); assay: competitive ELISA, coated purified PKC-δ, vs anti-PKC δ (SC-213); PRE 100 µM
T5 construct: also called PKC-delta
Procedure: as §3, §4, §5

[13] = target: T5, PKC-δ (purified isoform); assay: competitive ELISA, coated purified PKC-δ, vs anti-PKC δ (SC-213); PRE 200 µM
Procedure: as §3, §4, §5

[14] = target: T3, PKC-βI (purified isoform); assay: competitive ELISA, coated purified PKC-βI, vs anti-PKC βI (SC-209); PRE 200 µM
Procedure: as §3, §4, §5

[15] = target: T2, PKC-βII (purified isoform); assay: competitive ELISA, coated purified PKC-βII, vs anti-PKC βII (SC-210); PRE 200 µM
Procedure: as §3, §4, §5

[16] = target: T4, PKC-α (purified isoform); assay: competitive ELISA, coated purified PKC-α, vs anti-PKC α (SC-208); PRE 100 µM
Procedure: as §3, §4, §5

[17] = target: T4, PKC-α (purified isoform); assay: competitive ELISA, coated purified PKC-α, vs anti-PKC α (SC-208); PRE 50 µM
Procedure: as §3, §4, §5

[18] = target: T5, PKC-δ (purified isoform); assay: competitive ELISA, coated purified PKC-δ, vs anti-PKC δ (SC-213); PRE 50 µM
Procedure: as §3, §4, §5

T2 sequence (P05771 other isoform, or with tags, fused parts or gaps limits assumed): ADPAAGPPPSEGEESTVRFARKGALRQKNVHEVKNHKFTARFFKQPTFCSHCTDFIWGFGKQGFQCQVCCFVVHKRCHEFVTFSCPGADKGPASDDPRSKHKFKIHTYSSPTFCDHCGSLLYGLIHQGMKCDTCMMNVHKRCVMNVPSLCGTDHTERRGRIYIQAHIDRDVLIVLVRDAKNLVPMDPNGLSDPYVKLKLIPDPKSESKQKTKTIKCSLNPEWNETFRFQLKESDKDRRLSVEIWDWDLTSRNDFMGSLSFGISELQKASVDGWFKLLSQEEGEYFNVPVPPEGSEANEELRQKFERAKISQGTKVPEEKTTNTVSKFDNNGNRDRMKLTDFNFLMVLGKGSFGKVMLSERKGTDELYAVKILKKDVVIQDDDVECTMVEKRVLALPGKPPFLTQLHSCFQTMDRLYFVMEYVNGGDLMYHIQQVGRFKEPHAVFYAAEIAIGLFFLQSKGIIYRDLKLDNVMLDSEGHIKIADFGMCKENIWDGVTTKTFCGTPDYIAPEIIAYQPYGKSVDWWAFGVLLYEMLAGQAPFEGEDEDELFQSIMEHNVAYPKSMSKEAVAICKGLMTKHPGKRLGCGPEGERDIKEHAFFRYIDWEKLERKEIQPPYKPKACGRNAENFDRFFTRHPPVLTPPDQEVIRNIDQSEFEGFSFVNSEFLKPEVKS
T5 sequence (Q05655 whole entry, stated change not applied, canonical isoform): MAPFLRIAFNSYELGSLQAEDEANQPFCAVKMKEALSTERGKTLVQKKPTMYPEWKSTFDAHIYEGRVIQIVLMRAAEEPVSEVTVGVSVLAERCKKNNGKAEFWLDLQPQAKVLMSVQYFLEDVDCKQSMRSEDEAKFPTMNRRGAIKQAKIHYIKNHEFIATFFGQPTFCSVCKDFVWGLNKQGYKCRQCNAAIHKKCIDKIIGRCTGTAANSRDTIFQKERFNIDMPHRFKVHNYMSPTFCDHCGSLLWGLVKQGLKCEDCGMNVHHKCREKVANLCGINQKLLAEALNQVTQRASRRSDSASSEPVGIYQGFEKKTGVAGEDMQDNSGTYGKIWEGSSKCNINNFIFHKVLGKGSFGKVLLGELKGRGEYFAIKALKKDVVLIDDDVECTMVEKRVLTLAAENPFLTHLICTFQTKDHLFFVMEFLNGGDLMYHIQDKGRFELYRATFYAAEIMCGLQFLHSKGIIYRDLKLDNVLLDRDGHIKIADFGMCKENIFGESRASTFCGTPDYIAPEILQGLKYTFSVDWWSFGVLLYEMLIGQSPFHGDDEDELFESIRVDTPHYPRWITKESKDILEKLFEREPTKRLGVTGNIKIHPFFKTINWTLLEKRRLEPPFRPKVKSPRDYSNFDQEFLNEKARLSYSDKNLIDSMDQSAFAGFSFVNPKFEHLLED
T3 sequence (P05771 2-671 limits assumed): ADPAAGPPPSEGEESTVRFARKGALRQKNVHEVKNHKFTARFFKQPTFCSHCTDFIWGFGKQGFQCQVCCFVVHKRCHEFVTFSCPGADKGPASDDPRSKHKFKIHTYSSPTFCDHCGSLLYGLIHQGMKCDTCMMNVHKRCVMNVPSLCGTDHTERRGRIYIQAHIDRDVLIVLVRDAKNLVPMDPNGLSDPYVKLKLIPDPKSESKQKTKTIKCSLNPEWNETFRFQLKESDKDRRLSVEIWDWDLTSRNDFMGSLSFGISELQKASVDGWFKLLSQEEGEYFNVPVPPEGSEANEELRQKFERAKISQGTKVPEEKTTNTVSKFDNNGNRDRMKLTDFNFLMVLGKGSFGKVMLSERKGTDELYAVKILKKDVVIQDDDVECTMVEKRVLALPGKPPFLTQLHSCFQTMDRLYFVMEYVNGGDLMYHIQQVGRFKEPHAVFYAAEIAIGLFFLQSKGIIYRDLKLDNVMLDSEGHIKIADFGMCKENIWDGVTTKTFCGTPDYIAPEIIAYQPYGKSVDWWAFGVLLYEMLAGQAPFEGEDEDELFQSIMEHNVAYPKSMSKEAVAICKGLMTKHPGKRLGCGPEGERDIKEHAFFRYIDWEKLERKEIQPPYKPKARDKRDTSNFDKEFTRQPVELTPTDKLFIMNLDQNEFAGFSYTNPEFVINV

Binder: KDAQNLIGISL-NH2 (also called peptide PRE 2) [PRE 2]
Band Intensity [1]: 0
Inhibition (%) [1]: 100%
Relative Intensity (%) [1]: 0%
Band Intensity [2]: 0
Inhibition (%) [2]: 100%
Relative Intensity (%) [2]: 0%
Band Intensity [3]: 0
Inhibition (%) [3]: 100%
Relative Intensity (%) [3]: 0%
Band Intensity [4]: 160
Inhibition (%) [4]: 38.6%
Relative Intensity (%) [4]: 61.4%
Band Intensity [5]: 323
Inhibition (%) [5]: 23.4%
Relative Intensity (%) [5]: 76.6%
Band Intensity [6]: 0
Inhibition (%) [6]: 100%
Relative Intensity (%) [6]: 0%

Binder: Ac-ISIGILNQADK-NH2 (also called peptide PRE 10) [PRE 10]
relative binding capacity (100-%n, DMSO subtracted) [7]: 0%
relative binding capacity (100-%n, DMSO subtracted) [8]: 0%
relative binding capacity (100-%n, DMSO subtracted) [9]: 4.35%
relative binding capacity (100-%n, DMSO subtracted) [10]: 0%
relative binding capacity (100-%n, DMSO subtracted) [11]: 3.77%
relative binding capacity (100-%n, DMSO subtracted) [12]: 0%
relative binding capacity (100-%n, DMSO subtracted) [13]: 9.47%
relative binding capacity (100-%n, DMSO subtracted) [14]: 0%
relative binding capacity (100-%n, DMSO subtracted) [15]: 0%
relative binding capacity (100-%n, DMSO subtracted) [16]: 0%
relative binding capacity (100-%n, DMSO subtracted) [17]: 0%
relative binding capacity (100-%n, DMSO subtracted) [18]: 0%

Results, then the binder that gave them:

relative binding capacity (100-%n, DMSO subtracted) [7]: 0%
relative binding capacity (100-%n, DMSO subtracted) [8]: 0%
relative binding capacity (100-%n, DMSO subtracted) [9]: 13.9%
relative binding capacity (100-%n, DMSO subtracted) [10]: 2.1%
relative binding capacity (100-%n, DMSO subtracted) [11]: 19.8%
relative binding capacity (100-%n, DMSO subtracted) [12]: 45.2%
relative binding capacity (100-%n, DMSO subtracted) [13]: 49.4%
relative binding capacity (100-%n, DMSO subtracted) [14]: 13.4%
relative binding capacity (100-%n, DMSO subtracted) [15]: 0%
relative binding capacity (100-%n, DMSO subtracted) [16]: 0%
relative binding capacity (100-%n, DMSO subtracted) [17]: 0.69%
relative binding capacity (100-%n, DMSO subtracted) [18]: 35.7%
B1: PRE 1 (peptide)
peptide: RRKKGGKDFVVKR
notes: also called peptide PRE 1; peptide recognition element 1

relative binding capacity (100-%n, DMSO subtracted) [7]: 11.1%
relative binding capacity (100-%n, DMSO subtracted) [8]: 5.42%
relative binding capacity (100-%n, DMSO subtracted) [10]: 6.59%
relative binding capacity (100-%n, DMSO subtracted) [12]: 0%
relative binding capacity (100-%n, DMSO subtracted) [13]: 0%
relative binding capacity (100-%n, DMSO subtracted) [15]: 2.59%
relative binding capacity (100-%n, DMSO subtracted) [16]: 6.72%
relative binding capacity (100-%n, DMSO subtracted) [17]: 0%
relative binding capacity (100-%n, DMSO subtracted) [18]: 3.06%
Binder: Ac-ISIGILQNADK-NH2 (also called peptide PRE 7) [PRE 7]

Reference: patent publication US20110039770A1 (PHARMAGAP, published 2011)
